# Reference: patent US9493781B2, “Synthetic brassica-derived chloroplast transit peptides” (DOW AGROSCIENCES LLC, priority 2012, dated 2016)
# Columns and labels:
# [1] = system: chloroplasts of tobacco cells; assay: Tobacco transient assay: confocal microscopy of TraP-YFP localization; format: cell-based, Nicotiana benthamiana; conditions: Agrobacterium-infiltrated tobacco leaves
# From the text: The Trap8 and TraP9 chimeric chloroplast transit peptide sequences were initially tested via a transient in planta assay. Polynucleotide sequences which encode the Trap8 (SEQ ID NO:5) and TraP9 (SEQ ID NO:6) chimeric chloroplast transit peptide sequences were synthesized. A linker sequence (SEQ ID NO:7) was incorporated between the TraP sequence and the yfp coding sequence. The resulting constructs contained two plant transcription units (PTU). The first PTU was comprised of the Arabidopsis thaliana Ubiquitin 10 promoter (AtUbi10 promoter; Callis, et al., (1990) J. Biol. Chem., 265: 12486-12493), TraP-yellow fluorescent protein fusion gene (TraP-YFP; US Patent App. 2007/0298412), and Agrobacterium tumefaciens ORF 23 3′ untranslated region (AtuORF23 3′UTR; U.S. Pat. No. 5,428,147). […]
# Agrobacterium-infiltrated tobacco leaves were severed from the plant, and placed into a petri-dish with water to prevent dehydration. The infiltrated tobacco leaves were observed under blue light excitation with long-pass filter glasses held in place using a Dark Reader Hand Lamp™ (Clare Chemical Research Co.; Dolores, Colo.) to identify undamaged areas of the leaf that were successfully expressing the YFP reporter proteins. […]
# [2] = system: chloroplasts of maize protoplasts; assay: Maize protoplast transient assay: microscopy of TraP8-YFP; format: cell-based, Zea mays; conditions: B104 maize protoplasts, 12 hours after transfection
# From the text: The Trap8 chimeric chloroplast transit peptide-encoding polynucleotide sequence (SEQ ID NO:5) and the linker-encoding polynucleotide sequence (SEQ ID NO:7) were cloned upstream of the yellow fluorescent protein gene and incorporated into construct pDAB106597 (FIG. 8) for testing via the maize protoplast transient in planta assay. The resulting constructs contained a single plant transcription unit (PTU). The PTU was comprised of the Zea mays Ubiquitin 1 promoter (ZmUbi1 promoter; Christensen, A., Sharrock R., and Quail P., (1992) Maize polyubiquitin genes: structure, thermal perturbation of expression and transcript splicing, and promoter activity following transfer to protoplasts by electroporation, Plant Molecular Biology, 18:675-689), TraP-yellow fluorescent protein fusion gene (TraP8-YFP; US Patent App. 2007/0298412), and Zea mays Peroxidase 5 3′ untranslated region (ZmPer5 3′UTR; U.S. Pat. No. 6,384,207). The constructs were confirmed via restriction enzyme digestion and sequencing.
# Seed of Zea mays var. […]
# Transfection of 100 to 500 μl of protoplasts (1−5×10^5) was completed by adding the protoplasts to a 2 ml microfuge tube containing about 40 μg of plasmid DNA (pDAB106597), at room temperature. […] Fluorescence of YFP was viewed by microscopy after 12 hours of incubation. […]
molecule,measurement,setting,value
"TraP8: chimeric chloroplast transit peptide SEQ ID NO:3; N-terminus from Brassica napus EPSPS CTP, C-terminus from Brassica rapa (protein, TraP8 chimeric chloroplast transit peptide, N-terminus from Brassica napus EPSPS CTP, C-terminus from Brassica rapa) MAQSSRICHGVQNPCVIISNLSKSNQNKSPFSVSLKTHQQQRRAYQISSWGLKKSNNGSVIRPVK",Localization of YFP fluorescence in tobacco leaf cells,[1],accumulated within the chloroplasts
same,Localization of YFP fluorescence in maize protoplasts,[2],accumulated within the chloroplasts
